The results in this text go back to the supplement of paper PMC12042874.

± gives the uncertainty stated by the source.

The data set is described as follows: amyloid nucleation score (Sup35N fusion, yeast selection) (log enrichment); library NNK2; higher = more nucleation; inactive = no reads after selection. Put shortly:
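Growth for 7 days at 30°C on medium lacking adenine and uracil followed a 24-hour induction with 100 μM copper sulfate of psi-negative yeast expressing peptides of 20 random codons fused to Sup35N. Input and output plasmid inserts were sequenced with Illumina, and sequences with under 100 input reads were excluded. Nucleation score is the DiMSum log enrichment of output over input reads, centred on the mode score of non-aggregating sequences.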

For HSCSYRLLSMYTRLRTLVSG, the amyloid nucleation score was -0.828 ± 0.64.
Next, REYASILMYRNCMCH: 0.007 ± 0.5; RFKDCLIPQWLPGMIKNR: -0.444 ± 0.48.
Substance YLVRMRYGAM registered an amyloid nucleation score of 0.763 ± 0.43.
With LSVGLNKYRNA the figure was -0.919 ± 0.76; with DGDLTLNWVRSRLPLKNFRG, 0.144 ± 0.54; with VRSLKTHRFPFLCERSKFMG, -0.987 ± 0.38.
With GKNMRYFRQTGCH the figure was -0.39 ± 0.21.
With KGGEVEGLSLR the figure was -0.889 ± 0.63; with SRMVDR, 0.345 ± 0.45.
The substance LFEASPDAVTVSCDALGLGY yielded an amyloid nucleation score of 0.324 ± 0.3.
With SNVQGLACETTGMARGMWSE the figure was 0.597 ± 0.17.
With LTEVIVFYIRYMQARDRLIR the entry was “inactive”; with TKICWGSCRHLDLAFFLFLY, “inactive”; with RYRFVIMDDLIIMNAFNSIE, 4.48 ± 0.12.
With NVSVNAEVN the figure was -0.955 ± 0.54; with IRCCTYFAALSILLAPIKAG, 0.322 ± 0.27.
The substance PPYALDVTFVMRPKLSSR displayed an amyloid nucleation score of 1.21 ± 0.23.
On to IFYNIVE, for which the amyloid nucleation score was -1.31 ± 0.78.
Next, GLSRVDPWVYQLPSMGSHDS: 0.706 ± 0.52; DAVDFGISVSIHRSVREGWR: 4.89 ± 0.11; FYGPFV: 0.729 ± 0.23.
With ARRIVMWVYECGTYCWRRTT the figure was 0.216 ± 0.43.
The substance HRGNTCTGSRCRLADRRHPS came in with an amyloid nucleation score of 1.79 ± 0.18.
With TSWVYDEYVVCLPSWASYVL the figure was -0.509 ± 1.1; with ELVLF, -0.454 ± 0.42; with VNSVMARMITCTSVVGCKYW, -0.259 ± 0.19.
Next, LTFACSVLL: 3.1 ± 0.092; FACIPIQCIGISGRGSRDRR: 8.017 ± 0.044.
The substance RYGGRMAMRINYISIMSADY gave an amyloid nucleation score of 0.138 ± 0.47.
Next, MNSFQTRGSVPRRNPKIRAS: 0.998 ± 0.74; GMSERRWSCQLVGAVHDMAA: 1.17 ± 0.14.
Next, LSAGPALHSYLSGNVFSIEL: 2.69 ± 0.069; YRFHSTKRCINSGDNC: -0.14 ± 1.
Next, YTGRSDVNSVLRV: 0.183 ± 1; LYYASGRIRFCLHWHLIARV: 4.894 ± 0.041; LHGSGMENALSVPDMEQFPA: -0.159 ± 0.63.
VRKSFLCCKQMGLLF returned an amyloid nucleation score of -1.14 ± 0.64.
As to VSSWGMYYWFS, the amyloid nucleation score was found to be 0.06 ± 0.44.
With LMGLFREFFRYILFGCINQF the figure was -0.419 ± 0.27; with MKLFISNHTLWSIGKGDGVT, “inactive”; with MLDMVIYCISLYCSYTLRMR, 1.42 ± 0.58.
CSSRNILDWKFVFFVCYFT had an amyloid nucleation score of 3.41 ± 0.12.
With WKVSLGWNSHMCAGMETLWM the figure was 4.18 ± 0.048.
Next, DSWNRYNPFCPWKSYVTDSH: -0.926 ± 0.76.
With TKFVWDQNLVSSLINCGQSL the figure was -0.841 ± 1.1; with ANPFKSSDATVLVDVRGMGS, 3.09 ± 0.068.
YPWRYIFLSDPAGLIQTCRF gave an amyloid nucleation score of -1.34 ± 0.54.
Next, INDVLFTTRRGHTIS: 2.75 ± 0.094; GFPLWSAGNCFALNAGRDAG: 0.777 ± 0.19; FVLLFVYYFILFRLCRIQKV: “inactive”.
With NFSYNRCVR the figure was 0.383 ± 0.49.
Next, KYLGLGAFCVTVDYQRVWDA: 0.879 ± 0.58; HIVAGCIVQLANILWDRAEG: 0.57 ± 0.38.
MYRIDD: the amyloid nucleation score was determined as 6.83 ± 0.088.
Substance MLRQYCASFALVRCLNVTDR showed an amyloid nucleation score of 3.12 ± 0.13.
With RFFHGYFCGIRCRCQAVCQL the entry was “inactive”; with NVIVFRMGCRILNWGAQYGR, 6.44 ± 0.082.
Next, NDHVVVAHTFYLCDRNVDEM: 0.483 ± 0.4.
With LLHDDVNTYLVRTVRR the figure was 0.322 ± 0.31; with RYFDWYNI, -1.28 ± 0.45.
In turn, STRSGGLKQSVPLSRPP showed an amyloid nucleation score of -0.325 ± 0.42.
For FVCMIILS, the amyloid nucleation score was 4.89 ± 0.064.
With CFCKKCWVDSLLRRRVNNFH the figure was -0.737 ± 1.1; with DVFYRSVPMQVGWQVMWACD, 0.703 ± 0.15.
As to MYRCQSSVFIFGSYSPILCH, the amyloid nucleation score is -0.303 ± 0.63.
QVAKAYFEEGRRDDFSYHGK came in with an amyloid nucleation score of 0.171 ± 0.56.
For the substance SMLFRIRSLNVCSFAGLMRQ, the amyloid nucleation score turned out to be 2.37 ± 0.1.
Next, RDLSLNFIHPLRFGY: “inactive”; LTVTDG: 0.104 ± 0.37; ADPVNRKFLHSWDF: 0.112 ± 0.29.
Next, SRCMILFFRFIVSRYEVKSL: 1.77 ± 0.12; PDVMLCIFYIDFMQGFFDLY: 5.08 ± 0.07.
Next, KICYWLRRASVYMLVVLGRP: -0.343 ± 0.49; LMSMVCSESL: -0.555 ± 0.35; SDGNELDWIAGLTMYRGVER: 0.319 ± 0.8.
Substance VMIMVEVNPWGRCGRRRERS had an amyloid nucleation score of 9.613 ± 0.052.
The substance YKKGGLFDC came in with an amyloid nucleation score of -1.38 ± 0.39.
With TGLVVDCLAYRDCSVKQDRA the figure was 0.582 ± 0.34; with KDRDNVTGNSVVVRLRRRVL, -0.296 ± 0.54.
Next, VPYSICSKSSRESCRYVWYG: 3.79 ± 0.053; IPIYFSHMNRHWIKCYVLVC: -0.913 ± 0.36.
With QGFVPHRSIWHTSNLSDWFM the entry was “inactive”; with LYMVSPYRAKIRSQAFRLVT, -0.388 ± 0.33.
Regarding SSIGMVDIVKTLMGK, the amyloid nucleation score was -0.089 ± 0.61.
For SEILWKTWNRFKPCFSRQYG, the amyloid nucleation score is -0.675 ± 0.78.
The substance HRVWTVIMWGS displayed an amyloid nucleation score of 0.699 ± 0.44.
With LWYSL the figure was -0.558 ± 0.5; with SELWYVPLANVE, 0.242 ± 0.5; with DVWIFMTECGDAV, 0.743 ± 0.81.
With VENRMVVLRSSIAIWVSRTV the figure was 0.955 ± 0.34; with KINCLFISLGNRSRVVRTS, 0.681 ± 0.37.
Next, SLTCIDWSELQYSNKSFGSM: -0.766 ± 0.79; DKRPALFVYSVCRVSSIR: -1.26 ± 0.49; TMYRYASFKADLSDFKAAYE: 0.524 ± 0.81.
Turning to LVRPSGANPSCWAIINRGEI, the amyloid nucleation score came out at 10.63 ± 0.079.
With DPYYLKGYCVWEEYSWCPS the figure was -0.749 ± 0.55; with RNKIMCNPYCQGRICRILSG, -0.777 ± 0.53; with VMRNKILF, -0.341 ± 0.79.
With NLSLAFALMTSVVNHNMWSG the figure was 5.661 ± 0.044; with VGIYDYVLRSC, 0.115 ± 0.33.
In the case of ACIYRQRDS, the amyloid nucleation score is -0.332 ± 0.56.
Next, IFPLPDLGAYSC: 0.47 ± 0.65; GLQFSATISYERPVWGGVLR: 4.64 ± 0.066; PECVLVSFLRRAFELFAMCN: “inactive”.
The substance LFIVSDKTFYKGTGCSDFLV gave an amyloid nucleation score of -1.28 ± 1.
With KAPRTIYPVVLQPAS the figure was -0.484 ± 0.33; with NVSIMFRFFVYLC, 4.16 ± 0.066.
In the case of WCGLISASYTLIHSNRFMKL, the amyloid nucleation score was -1.04 ± 1.1.
Next, ILRDVVDLQMHNTWRNRGDQ: 3.66 ± 0.063; FEYPLCKTFEIRKPVFRVWV: -0.089 ± 0.79.
Next, ISTINNGYVFRLYLGSCILD: 6.02 ± 0.081.
With MEYRGQVQGCSYPWVYRLGW the figure was -0.078 ± 0.54; with AGGEEIGGVSRS, -1.07 ± 0.49; with AIFYDLMVNQRFVFTSFLWL, -0.14 ± 0.74.
Substance SVIDDHKKVKSGITRSYREK gave an amyloid nucleation score of 0.504 ± 0.15.
In the case of WIQKPGLFASNGATATGGHV, the amyloid nucleation score turned out to be 0.395 ± 0.56.
Next, CWFSTTGYDPLEPSFNLVLR: -1.58 ± 0.54; QCVTSCCSSHEWHSTRQMIF: -0.502 ± 0.46; MVYNQCRSDL: -1.04 ± 0.23.
Next, MRLEWNRGLLCDDSYARTAR: 0.83 ± 0.41; SSLRKRRLVVRNVAKSRMFL: 2.14 ± 0.31.
With NTAFADVDAF the figure was -0.645 ± 0.55; with LLMFAMYIQIRLLSTATYIV, -0.564 ± 0.79; with FQGCIPFLFVNSWFSYSFVK, -1.36 ± 1.1.
Regarding LLYEPFVWVYKHRYVVTGYS, the amyloid nucleation score is -1.76 ± 0.76.
With GVTPG the figure was 0.752 ± 0.16.
With TCGTVSNSRASRQFESSSNA the figure was 0.633 ± 0.18.
Next, VAWTRCSLHWLQFVLCLSGE: 5.92 ± 0.041; SFYSDYNQLIISMGHWSSMN: 4.35 ± 0.11.
The substance WEDGTFEV showed an amyloid nucleation score of -0.219 ± 0.61.
With FPCSVRVTLTYLFMYEPVRP the figure was 0.076 ± 0.2; with RNKCYLLCLR, -0.384 ± 0.26.
ARMIVCPTVFAIPWYNNSFI displayed an amyloid nucleation score of -1.47 ± 0.78.
With CFTSWMRPRKSYLTDNRCIN the figure was -0.55 ± 0.79.
With DVGCAMPSYTRGWYVYSNLM the figure was 0.58 ± 0.42; with DTLWEGSLLNVYFVDVIRST, 0.06 ± 0.55.
Next, SRKKVMHYDFLVSGVVTHRW: “inactive”; LYRMYPWVLVGCELFRMVCR: 0.108 ± 0.38.
